Patent US20220169747A1 (CERTIS THERAPEUTICS, published 2022)
Values belong to the binder of their own block, whether it stands above or below them. Bridges are numbered along the chain shown (N, C = ends).

Experiments:
[1] = biological target: T1, recombinant ErbB4/HER4 ECD (UniProt Q15303 26-651, limits assumed); assay: ELISA, plate coated with recombinant HER4 ECD, anti-mouse antibody-alkaline phosphatase, pNPP, A405 nm
T1 construct: extracellular domain; also called ErbB4 ECD
T1 sequence (looked up): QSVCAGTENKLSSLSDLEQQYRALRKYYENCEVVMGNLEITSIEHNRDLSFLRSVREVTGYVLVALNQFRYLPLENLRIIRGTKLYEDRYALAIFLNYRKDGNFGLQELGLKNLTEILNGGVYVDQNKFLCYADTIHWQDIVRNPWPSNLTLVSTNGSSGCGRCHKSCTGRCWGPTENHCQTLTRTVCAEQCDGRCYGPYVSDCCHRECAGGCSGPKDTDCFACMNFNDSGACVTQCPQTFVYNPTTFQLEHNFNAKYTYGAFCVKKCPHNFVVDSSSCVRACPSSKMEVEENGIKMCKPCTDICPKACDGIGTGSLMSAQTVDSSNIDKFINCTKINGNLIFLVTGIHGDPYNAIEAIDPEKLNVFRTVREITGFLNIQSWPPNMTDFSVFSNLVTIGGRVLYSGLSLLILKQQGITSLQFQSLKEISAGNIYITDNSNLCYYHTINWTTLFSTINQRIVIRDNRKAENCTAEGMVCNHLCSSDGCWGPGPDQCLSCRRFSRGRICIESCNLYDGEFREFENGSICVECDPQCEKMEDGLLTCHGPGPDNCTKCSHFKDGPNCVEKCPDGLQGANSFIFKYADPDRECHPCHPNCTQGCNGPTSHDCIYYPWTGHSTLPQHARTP
Experimental: (§1) Polystyrene 96-well plates were coated with […], 3 μg/mL recombinant ErbB2 ECD, ErbB3 ECD, ErbB4 ECD or EGFR501 in PBS overnight at 4° C. The plates were blocked with 3% FCS in PBS for one hour at room temperature (RT). Plates were incubated with 10 μg/mL serially diluted purified antibody along with appropriate controls for one hour at RT. Following washing three times, plates were incubated with anti-mouse IgG AP conjugate (1:2000 dilutions) for one hour at RT.

[2] = biological target: T2, recombinant sEGFR ectodomain (EGFR501) (UniProt P00533 25-645, limits assumed); assay: ELISA, plate coated with recombinant sEGFR ectodomain, anti-mouse antibody-alkaline phosphatase, pNPP, A405 nm
T2 construct: extracellular domain; also called EGFR/HER1 ectodomain
Experimental: as §1

[3] = biological target: T3, cyclic HER2 peptide immunogen H-GCPLHNQEVTAEDGTQRC-NH2 coupled to KLH (human, disulfide 2-18 (inferred); also: coupled to KLH); assay: ELISA, antigen on the plate, antibody at 10 ug/mL, anti-mouse Ig-alkaline phosphatase, pNPP, A405nm
T3 construct: also called cyclised peptide; circularised peptide
T3 peptide: H-GCPLHNQEVTAEDGTQRC-NH2
Experimental: (§2) Polystyrene 96-well plates were coated with 3% FCS in PBS for one hour at RT. A final peptide concentration of 1 mg/mL was achieved by diluting the peptide in 0.1% acetic acid. This peptide solution was further diluted to 30 μg/ml in 3% FCS-PBS. Plates were incubated with the linear or cyclic peptide immunogen coupled to KLH, HER2-ECD or negative control peptide-KLH, in dilution buffer (3% FCS-PBS) for one hour at RT. […] Following washing, plates were then incubated with anti-mouse Ig-Alkaline phosphatase (Sigma A-3688), (1:3000 dilutions) for one hour at RT.

[4] = biological target: T4, linear HER2 peptide immunogen H-CPLHNQEVTAEDGTQR-NH2 coupled to KLH (also: coupled to KLH); assay: as above
T4 construct: Synthetic peptide; also called linear peptide; KLH-linear peptide
T4 peptide: H-CPLHNQEVTAEDGTQR-NH2
Experimental: as §2

[5] = biological target: T5, recombinant ErbB3/HER3 ECD (UniProt P21860 20-643, limits assumed); assay: ELISA, plate coated with recombinant HER3 ECD, anti-mouse antibody-alkaline phosphatase, pNPP, A405 nm
T5 construct: extracellular domain; also called ErbB3 ECD
Experimental: as §1

[6] = biological target: T6, control irrelevant peptide H-LEEKKGNYVVTDHC-NH2 coupled to KLH (also: coupled to KLH); assay: ELISA, antigen on the plate, anti-mouse Ig-alkaline phosphatase, pNPP, A405nm
T6 construct: Synthetic negative control; also called control peptide; negative control peptide-KLH
T6 peptide: H-LEEKKGNYVVTDHC-NH2
Experimental: as §2

binding result [1]: no binding (tested: 10000 ng/ml)
binding result [2]: no binding (tested: 10000 ng/ml)
binding result [3]: binds
binding result [4]: binds
binding result [5]: no binding (tested: 10000 ng/ml)
binding result [6]: no binding (tested: 10 ug/mL)
B1: mAb104 (antibody, IgG1, V domains shown)
VH: EVQLQQSGPELVKPGASVKISCKASGYSFTGYFMHWVRQSHVRSLEWIGRINPYNGDIRYNQNFKDKASLTVDKSSSTAYMELHRLTSEDSAVFYCASLNFAYWGQGTPVTVSA
VL: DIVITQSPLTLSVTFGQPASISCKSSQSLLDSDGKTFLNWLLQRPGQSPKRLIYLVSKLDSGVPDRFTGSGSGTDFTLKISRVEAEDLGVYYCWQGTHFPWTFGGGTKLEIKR
notes: Murine monoclonal purified from hybridoma supernatant

binding result [3]: binds
binding result [4]: binds
binding result [6]: no binding (tested: 10 ug/mL)
B2: mAb106 (antibody, IgG1, V domains shown)
VH: QIQLVQSGPELKKPGETVKISCKASGYTFTDYGMNWVKQAPGKGLKWMGWINTYTGKPTYDDDFKGRFAFSLETSASTAYLQINNLKNEDMATYFCARRFLNTVAGRSVYFDYWGQGTTLTVSS
VL: QIVLTQSPALMSVSPGEKVTMTCSVSSSVGSMYWYQQKPRSSPKPWIYLTSNLASGVPPRFSGSGSGTSYSLTISSMEGEDAATYYCQQWSSNPPTFGAGTKLELKR
notes: as for B1
